Data taken from patent US20130101595A1.

Experiments:
[1] = biological target: recombinant human IL-18 (rhIL-18) (human) (UniProt Q14116); assay: cell-based or functional assay
[2] = biological target: recombinant human IL-18 (rhIL-18) (human) (UniProt Q14116); assay: SPR (BIAcore), biotinylated rhIL-18 on streptavidin chip, antibody in solution

IC50 Value, KG-1 cell-based IL-18 neutralization assay (hIFN-gamma) [1]: 200 pM | Kd [2]: 620 pM | koff [2]: 0.00011 s⁻¹ | kon [2]: 170000 M⁻¹ s⁻¹
B1: 125-2H (antibody, from another filing, V domains shown)
VH: EIQLQQSGPELVKPGASVKVSCKASGYSFTDYFIYWVKQSHGKSLEWIGDIDPYNGDTSYNQKFRDKATLTVDQSSTTAFMHLNSLTSEDSAVYFCARGLRFWGQGTLVTVSA
VL: DIQMTQSPSSLSASLGERVSLTCRASQDIGSKLYWLQQEPDGTFKRLIYATSSLDSGVPKRFSGSRSGSDYSLTISSLESEDFVDYYCLQYASSPYTFGGGTKLAIKR
